From patent US20120237966A1

Molecular target: GI (K607T)-mCherry-CAAX (Arabidopsis thaliana) (UniProt Q9SQI2)
Experiment: cell-based or functional assay

Sequence of UniProt Q9SQI2 (Q9SQI2 other isoform, or with tags, fused parts or gaps K607T K607T): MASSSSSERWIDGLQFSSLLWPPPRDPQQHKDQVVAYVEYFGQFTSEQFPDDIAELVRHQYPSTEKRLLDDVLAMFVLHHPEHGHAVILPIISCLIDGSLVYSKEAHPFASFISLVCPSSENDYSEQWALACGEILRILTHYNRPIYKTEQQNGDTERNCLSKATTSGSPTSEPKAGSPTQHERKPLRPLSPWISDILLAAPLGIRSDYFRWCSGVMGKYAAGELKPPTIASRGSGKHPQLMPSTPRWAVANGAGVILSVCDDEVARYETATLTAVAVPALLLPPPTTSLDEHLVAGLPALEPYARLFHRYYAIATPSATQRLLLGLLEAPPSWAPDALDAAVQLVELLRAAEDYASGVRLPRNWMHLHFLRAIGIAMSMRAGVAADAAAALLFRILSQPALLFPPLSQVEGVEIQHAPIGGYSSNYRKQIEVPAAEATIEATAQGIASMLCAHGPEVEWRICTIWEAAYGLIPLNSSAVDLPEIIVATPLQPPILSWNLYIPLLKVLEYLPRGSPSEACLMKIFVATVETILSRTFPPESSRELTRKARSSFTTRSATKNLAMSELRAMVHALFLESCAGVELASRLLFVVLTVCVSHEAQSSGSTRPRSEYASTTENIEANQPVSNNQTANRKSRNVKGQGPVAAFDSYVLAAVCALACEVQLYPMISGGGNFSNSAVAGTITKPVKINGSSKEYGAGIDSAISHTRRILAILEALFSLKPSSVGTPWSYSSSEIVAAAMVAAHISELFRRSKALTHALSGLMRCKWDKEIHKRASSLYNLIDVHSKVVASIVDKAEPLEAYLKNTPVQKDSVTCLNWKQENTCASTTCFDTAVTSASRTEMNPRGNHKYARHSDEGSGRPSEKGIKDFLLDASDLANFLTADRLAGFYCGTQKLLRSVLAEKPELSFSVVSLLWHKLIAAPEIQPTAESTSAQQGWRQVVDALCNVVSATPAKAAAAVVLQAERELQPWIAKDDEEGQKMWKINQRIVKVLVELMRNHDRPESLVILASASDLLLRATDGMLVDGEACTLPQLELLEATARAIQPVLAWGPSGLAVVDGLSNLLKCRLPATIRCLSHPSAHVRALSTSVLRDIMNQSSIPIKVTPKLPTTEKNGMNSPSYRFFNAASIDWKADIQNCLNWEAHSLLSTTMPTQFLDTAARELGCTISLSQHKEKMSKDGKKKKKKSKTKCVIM

Substance | percentage of cells with lamellipodia, increase upon illumination [%]
NES-FKF1(K15T)-YFP-linker-Rac1ca (FKF1-Rac) G128D (from UniProt P63000 1-188) | 87
NES-FKF1(K15T)-YFP-linker-Rac1ca (FKF1-Rac) WT (from UniProt P63000 1-188) | 46
